Results published in the supplement of paper PMC9170038.

system: K4 kissing-loop RNA reporter; test: apparent KD of K4 kissing-loop reporter; higher = weaker reporter binding; conditions: Eterna round: R107; input ligand: none
Procedure: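 RNA-MaP round R107: designed RNA switches with theophylline, tryptophan, arginine or FMN aptamers are transcribed on-chip within common flanks. They are titrated with a labelled K4 kissing-loop RNA reporter in RNA-MaP buffer (100 mM Tris pH 7.5, 80 mM KCl, 4 mM MgCl2), without ligand or with the indicated ligand. Median apparent KD per design.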
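Also: bound reporter read as fluorescence of individual clusters on recovered sequencing chips by microscopy, with normalized cluster intensities fitted with a binding model.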

| Sequence | apparent KD of K4 kissing-loop reporter |
| --- | --- |
| ACCUAGUACGUAGGAUAUCGAACAUCAUUUAGUGAGAUCGAGUGAUGUUCGAUCACGUCUUCAGUUCGAGAAGGACGUACUAGGA [FMN B SS t4] | 302 nM |
| UCCUGCAAUCGUCCACGAAAGUGGAUUGAUACCAGAGUCGAAAGACUCCCUUGGCAGCGAGUGAUGUUCGAAGCAGGUAAAUAAA | 417 nM |
| GCCAGUGAUGUUGGCAUUUCGAGCCAUGAAGGAGCGCACGGAAGUGCAGGUAGGUCGCAUGGUACUUAAGAUAUUAUCCUAAGUA [Atceis] | 192 nM |
| CGCAGUGAUGUUGCGAGUAGCUACAGGGAAGGAGCGUGCUAGAGCACAGGUAGGUCGCCCAGUGGCAGUGAUGUUGCCAAAGGGU [Exclusion ARginine A GF 17] | 118 nM |
| AACGCAAGUUGUCUGGUAGACAUUUCAGAUACCAGACAUAGUGAUGUCCCUUGGCAGCUGAACAUCCAGUGAUGUUGGAUACGUU [Theo A SS t11a] | 513 nM |
| GGUGCUGUCUGUGCCGCCCUCCUCGUUCCUCGAGGACCGGUACGGCCGCCACUCGAGUGAUGUUUGGGUAGCGAUCCCUGCUAGC [Bdazzled - #16 Exc. Tryptophan A] | 1060 nM |
| UAUAUAGUGAUGUUAUAUAUACAUUCGGAAGGAGCGUGGUAAAACACAGGUAGGUCGCUGAAAUAAUUAAAAUAAUUUUCUUUUU [AstrosSSArgA#1] | 279 nM |
| UACAAUUUGGCGGCCGCCACUGACCAUAGCCUUCGAUGGCCAGUGAUGUUGGCCUCUGGCUCUAACAGGACCGGGCCAAAUUAUG [Maeste] | 271 nM |
| AACCGUGUGGCGGCCGCCACUAGUCUCCAGUGAUGUUGGAGAGAUCACGUAAGUGAUCUCCGACAUAGGACCGGGCCAUAUGGAA [Same State - Tryptophan B (Freestyle 24)] | 295 nM |
| GGCCGGAAGGCGAGCGCUCCCACUCCGGAAGGAGCGCCCGCAAGGGCAGGUAGGUCGCCGGAGUGAUGUUCCGGUGGAGGGCUCG [#2 Exclusion - Arginine A Attempt #20 (Inspired by Omei)] | 379 nM |
| GGAUAGGACAUAGGAUAUGGGCUAGGCAAGAAUAACUUGUCUAGCAAAUCCAUGAGGAGUGAUGUUCCAGAAGGGUGUCCUAUCG [FmnBX 1 U11+G75] | 99.4 nM |
| GCAGUGAUGUUGCGGAUGUACAGUGGGAUACGAGGACCGGUACGGCCGCCACUCGUACAGAACAAGCUAAUACAUCGAUAGGUGA [XII] | 339 nM |
| GCAGUGAUGUUGCGGAUGUACAGUGGCGUGCGAGGACCGGUACGGCCGCCACUCGUACAGCACAAGCUAAUACAUCGAUAGGUGA [whbob_SS_Tryp_A_m2] | 357 nM |
| UGCGCUGUGUACUGAAAUGUUAUGCGGGAUACCAGAGUCUUUUUAUUCCCUUGGCAGCUUGAGUGAUGUUUGAUGCCGUUCUUGU [po,,mmullin] | 548 nM |
| GUCUCGAGUGAUGUUCGGGUCGAUUGGGAAGGAGCGCCCGGAAGGGCAGGUAGGUCGCCCGGACCGCGCGGGCAACCGCGCGGCC [#2 Same State - Arginine A Attempt #11 (HarryS)] | 147 nM |
| GCCAUCAGGUCGCAAGACCUGAUAGCCGAUACCAGCGCGAAGGUGCGCCCUUGGCAGCGGCACCGAGUGAUGUUCGGUCAGGCGG [#2 Same State - Theophylline A Attempt #3 (HarryS)] | 595 nM |
| CUUAAGGAGUGUCGUGCCGGACACUGGGAAGGAGCGCAAUUCUUUGCAGGUAGGUCGCCCAGUGAUGUUGGGUGGCGCUGUCGAA [Laatonbi] | 149 nM |
| GCGAACAUUCGCAGUGAUGUUGCGACGGAAGGAGCGCGUGAAAACGCAGGUAGGUCGCCGACAAAAUUAAUUUUAAUGUGUUCGC [Arginine A K4 27] | 488 nM |
| UGUGUUGUUGUGAUGUUUAGUGUUGUUGGGCAGGAUAUCGUAGAGGCGAGAAGGGCUUGUGUGCUGUAUGAGUGAUGUUUGUAGG [xrrxmullin] | 428 nM |
| AGAACUGUCUGAGAUACCAGCCAUAGGAGUGAUGUUCCUAGCUCCACAAAGUGGAGCCAUGGCCCUUGGCAGCUCAGACAGUUCA [Omei KL Theo B SS A v8] | 219 nM |
| AAAAUAAACCAGUGAUGUUGGUGUCCAGAUACCAGCGACAAAAGUCGCCCUUGGCAGCUGUGGACGUACAAAAUAAGUACGUCCU [MatMod 1 - Jieux - Same State - Theophylline A] | 393 nM |
| AGGUCCGAGCCCGUAAGGGCUCGGACCUGUUAGGAUAUGACGUUAUUCAGAAGGGAUGGGUGGAGUGAUGUUCCACCCGCAAGGG [#2 Same State - FMN A Attempt #10 (HarryS)] | 93.2 nM |

same assay, conditions: Eterna round: R107; input ligand: theophylline 20 uM

| Sequence | apparent KD of K4 kissing-loop reporter |
| --- | --- |
| UUAUCUAUAUUCGAUACCAGUACCCUGUGUGUUGAUCCUUUUAUAAGUGAUGUUUAUGAGUACCCUUGGCAGCGGGUAUGGGUUU [KL-XTheo-B17] | 944 nM |
| GGGAGUAGUGCGGCCGCCACUGAGAAAGAAGAAGAAUAUAGUGAUGUUAUAUAGGAAGGGAAGAACAGGACCGGGCAUUAGAUUU [SSTRyptB.Y] | 311 nM |
| UGUGAACAAAAGUAGAGUGGACCACUAUAGCGAGGACCGGUACGGCCGCCACUCGUGUAUGAAUUCAGUGAUGUUGAAAAGAGCU [whbob_EX_Tryp_A_t11] | 254 nM |
| CAUACGCAUGGAGGAUAUGAGAUUACUCAUAUCAUUUAAUAUUCUCAGUGAUGUUGAGAUUUAAACUCAGAAGGCCAUGUGUAUG [Ex FMN B 12] | 356 nM |
| AAACAUCACUGGGAGUGAUGUUCUCAGUGACGAGGACCGGUACGGCCGCCACUCGCGAGAGAUAUAAAUGAGUAAUGACAUCAUU [Excl Tryptophan A V2] | 258 nM |
| UACUGGGCGAGUGAUGUUCGCUCACGUGAUACCAGUGCCAUCCAACACCCUUGGCAGCACGCGGGCAGUGAUGUUGUCCUUGUAU [Exclusion Theophylline A GF 5] | 129 nM |
| GCCGUAGAUUGAAGGAGCGUUCUUCAGCAAACUUGCAGUGAUGUUGCAUUAAACAUGUAAGAACAGGUAGGUCGCAAUCUACGGC | 129 nM |
| CUAACGGUACGAGUGAUGUUCAGCAAGGAUACCAGCGGACAGUCACGCCCUUGGCAGCCUAGUUUCUACCCGUCGGAAUUUCUUA [theeternabot_sameState_KL_Theo_A_2] | 461 nM |
| UUUGUAUAGGGAAGGAGCGUGAAUGAUAAUGAAUAUAGUGAUGUUAUAUAGAAGAAAGAAUCACAGGUAGGUCGCCCGGAGGAGG [SSArgB.I] | 456 nM |
| GGGCGCGGCGCGGCCGCCACUGGGCCUGGGCGCGCGCCGAGUGAUGUUCGCCUGCGGCUGGGUCGUAGGACCGGGUGCCGGCUGG [BDazzled 1] | 376 nM |
| AAUGUACAGGGAAGGAGCGUAGUCCAGUGAUGUUGGAAUUAAAUUCCUGCGAUGUUGGUUAUACAGGUAGGUCGCCCUAAAGUGC [KL-XARG-B22] | 497 nM |
| CCCGGGUCGUCAGGAUAUGAGUGCAGUGAUGUUGCACGGGUCUUUGCAGGCCCUGGUGAGGCGUACUCAGAAGGGACGCCAGGUC [Atazazaed] | 130 nM |
| UAAGAAUAAGUAGCAGUGAUGUUGCUACUGCGAGGACCGGUACGGCCGCCACUCGAGUCCUCGAAGCAUCACUGAACGAGGAAUA [whbob_SS_Tryp_A_m12] | 326 nM |
| GCCUAGCAGGGAAGGAGCGCCAUAUAAUUAAAAGUUAAUUAAUGAGUGAUGUUCAAAUAAUGGCAGGUAGGUCGCCCUGCUAGGC [KL-SSArg B9] | 316 nM |
| AAGUAGCUCUCGGCCGCCACUCCUCAGUGAUGUUGAGAUAUUAAGAGCCAAUUGGCUCAUAUAAAGAGGACCGGGAGAGCUACAA [AK4 SS Tryptophan B] | 282 nM |
| AGACUACCACACUGUCAAUAGACAGUGGACUAGGAUAUGCUGAUAAGCAGAAGGAGUGAUGUUCCAAGGUAGUCAAUAAAAUAAU [FmnAX 13 G28+A66] | 396 nM |

| Sequence | apparent KD of K4 kissing-loop reporter |
| --- | --- |
| GCCUUAUAUCGAGCUACAGCUCGAUUUGGUCGAGGACCGGUACGGCCGCCACUCGAAUGAUAGUGAUGUUAUCAUUAUGGCCUAA [JR_ExcTryptoA_Sub022] | 130 nM |
| AUUAGGCGAAGUGAUGUUUCAUAUAAUGGCAAGGAUAUGUCCUUACACAGAAGGUGCUCUUAGUCAGGUUAUAUUAGGACUGCUA [theeternabot_exclusion_KL_FMN_A_42] | 474 nM |
| GCCGUAGAUUGAAGGAGCGGGAUAGAGAAAGUGAUGUUUUCUCUUUGACGGCGUCCUCGAUCCCAGGUAGGUCGCAAUCUACGGC | 73.5 nM |
| AUAAACUUGCAGUGAUGUUGCAAGUGAGACUAGGAUAUCAGGAAGCUGAGAAGGAGUCAUCUCCUUCAGACAUCACUAUGAAGGA [whbob_SS_FMNA__2th179] | 205 nM |
| AAGCAGUCACUCGAACCCAUCGAAGAUGGUCGAGGACCGGUACGGCCGCCACUCGGAGUGAUGUUCCGCAGACUGCAAAAUAAAA | 511 nM |
| ACCUAGUACGUAGGAUAUCGAACAUCAUUUAGUGAGAUCGAGUGAUGUUCGAUCACGUCUUCAGUUCGAGAAGGACGUACUAGGA [FMN B SS t4] | 477 nM |
| UCCUGCAAUCGUCCACGAAAGUGGAUUGAUACCAGAGUCGAAAGACUCCCUUGGCAGCGAGUGAUGUUCGAAGCAGGUAAAUAAA | 363 nM |
| GCCAGUGAUGUUGGCAUUUCGAGCCAUGAAGGAGCGCACGGAAGUGCAGGUAGGUCGCAUGGUACUUAAGAUAUUAUCCUAAGUA [Atceis] | 177 nM |
| CGCAGUGAUGUUGCGAGUAGCUACAGGGAAGGAGCGUGCUAGAGCACAGGUAGGUCGCCCAGUGGCAGUGAUGUUGCCAAAGGGU [Exclusion ARginine A GF 17] | 126 nM |
| AACGCAAGUUGUCUGGUAGACAUUUCAGAUACCAGACAUAGUGAUGUCCCUUGGCAGCUGAACAUCCAGUGAUGUUGGAUACGUU [Theo A SS t11a] | 507 nM |
| GGUGCUGUCUGUGCCGCCCUCCUCGUUCCUCGAGGACCGGUACGGCCGCCACUCGAGUGAUGUUUGGGUAGCGAUCCCUGCUAGC [Bdazzled - #16 Exc. Tryptophan A] | 801 nM |
| UAUAUAGUGAUGUUAUAUAUACAUUCGGAAGGAGCGUGGUAAAACACAGGUAGGUCGCUGAAAUAAUUAAAAUAAUUUUCUUUUU [AstrosSSArgA#1] | 239 nM |
| UACAAUUUGGCGGCCGCCACUGACCAUAGCCUUCGAUGGCCAGUGAUGUUGGCCUCUGGCUCUAACAGGACCGGGCCAAAUUAUG [Maeste] | 245 nM |
| AACCGUGUGGCGGCCGCCACUAGUCUCCAGUGAUGUUGGAGAGAUCACGUAAGUGAUCUCCGACAUAGGACCGGGCCAUAUGGAA [Same State - Tryptophan B (Freestyle 24)] | 351 nM |
| GGCCGGAAGGCGAGCGCUCCCACUCCGGAAGGAGCGCCCGCAAGGGCAGGUAGGUCGCCGGAGUGAUGUUCCGGUGGAGGGCUCG [#2 Exclusion - Arginine A Attempt #20 (Inspired by Omei)] | 8.89 nM |
| GGAUAGGACAUAGGAUAUGGGCUAGGCAAGAAUAACUUGUCUAGCAAAUCCAUGAGGAGUGAUGUUCCAGAAGGGUGUCCUAUCG [FmnBX 1 U11+G75] | 111 nM |
